This note sets out measurements from IntAct's records for PubMed 19242489.

B1: Integrin beta-4 (Homo sapiens), P16144 (parent)
chain: MAGPRPSPWARLLLAALISVSLSGTLANRCKKAPVKSCTECVRVDKDCAYCTDEMFRDRRCNTQAELLAAGCQRESIVVMESSFQITEETQIDTTLRRSQMSPQGLRVRLRPGEERHFELEVFEPLESPVDLYILMDFSNSMSDDLDNLKKMGQNLARVLSQLTSDYTIGFGKFVDKVSVPQTDMRPEKLKEPWPNSDPPFSFKNVISLTEDVDEFRNKLQGERISGNLDAPEGGFDAILQTAVCTRDIGWRPDSTHLLVFSTESAFHYEADGANVLAGIMSRNDERCHLDTTGTYTQYRTQDYPSVPTLVRLLAKHNIIPIFAVTNYSYSYYEKLHTYFPVSSLGVLQEDSSNIVELLEEAFNRIRSNLDIRALDSPRGLRTEVTSKMFQKTRTGSFHIRRGEVGIYQVQLRALEHVDGTHVCQLPEDQKGNIHLKPSFSDGLKMDAGIICDVCTCELQKEVRSARCSFNGDFVCGQCVCSEGWSGQTCNCSTGSLSDIQPCLREGEDKPCSGRGECQCGHCVCYGEGRYEGQFCEYDNFQCPRTSGFLCNDRGRCSMGQCVCEPGWTGPSCDCPLSNATCIDSNGGICNGRGHCECGRCHCHQQSLYTDTICEINYSAIHPGLCEDLRSCVQCQAWGTGEKKGRTCEECNFKVKMVDELKRAEEVVVRCSFRDEDDDCTYSYTMEGDGAPGPNSTVLVHKKKDCPPGSFWWLIPLLLLLLPLLALLLLLCWKYCACCKACLALLPCCNRGHMVGFKEDHYMLRENLMASDHLDTPMLRSGNLKGRDVVRWKVTNNMQRPGFATHAASINPTELVPYGLSLRLARLCTENLLKPDTRECAQLRQEVEENLNEVYRQISGVHKLQQTKFRQQPNAGKKQDHTIVDTVLMAPRSAKPALLKLTEKQVEQRAFHDLKVAPGYYTLTADQDARGMVEFQEGVELVDVRVPLFIRPEDDDEKQLLVEAIDVPAGTATLGRRLVNITIIKEQARDVVSFEQPEFSVSRGDQVARIPVIRRVLDGGKSQVSYRTQDGTAQGNRDYIPVEGELLFQPGEAWKELQVKLLELQEVDSLLRGRQVRRFHVQLSNPKFGAHLGQPHSTTIIIRDPDELDRSFTSQMLSSQPPPHGDLGAPQNPNAKAAGSRKIHFNWLPPSGKPMGYRVKYWIQGDSESEAHLLDSKVPSVELTNLYPYCDYEMKVCAYGAQGEGPYSSLVSCRTHQEVPSEPGRLAFNVVSSTVTQLSWAEPAETNGEITAYEVCYGLVNDDNRPIGPMKKVLVDNPKNRMLLIENLRESQPYRYTVKARNGAGWGPEREAIINLATQPKRPMSIPIIPDIPIVDAQSGEDYDSFLMYSDDVLRSPSGSQRPSVSDDTGCGWKFEPLLGEELDLRRVTWRLPPELIPRLSASSGRSSDAEAPHGPPDDGGAGGKGGSLPRSATPGPPGEHLVNGRMDFAFPGSTNSLHRMTTTSAAAYGTHLSPHVPHRVLSTSSTLTRDYNSLTRSEHSHSTTLPRDYSTLTSVSSHDSRLTAGVPDTPTRLVFSALGPTSLRVSWQEPRCERPLQGYSVEYQLLNGGELHRLNIPNPAQTSVVVEDLLPNHSYVFRVRAQSQEGWGREREGVITIESQVHPQSPLCPLPGSAFTLSTPSAPGPLVFTALSPDSLQLSWERPRRPNGDIVGYLVTCEMAQGGGPATAFRVDGDSPESRLTVPGLSENVPYKFKVQARTTEGFGPEREGIITIESQDGGPFPQLGSRAGLFQHPLQSEYSSITTTHTSATEPFLVDGLTLGAQHLEAGGSLTRHVTQEFVSRTLTTSGTLSTHMDQQFFQT

The variants in the first assay derive from B1. To be noted: with plec_human PLEC.
R1281A: the “effect of a mutation on the interaction” value is “disrupting interaction”.

The variants in the next assay derive from B1. To be noted: with plec_human PLEC. This is another data set of the same source.
Take R1225H: the “effect of a mutation on the interaction” value was “disrupting interaction”.
